This note sets out measurements from patent publication US20050032696A1 (published 2005).

This data set concerns the molecule itself. In words: yeast two-hybrid mating assay, β-galactosidase reporter. The procedure: The dual reporter YM4271 yeast strains containing the USE-B1 and USE-B1b tandem repeats have been described previously (O'Mahoney et al. 1998). A two-hybrid mating assay was used to examine the transactivation and dimerisation functions of hMusTRD1α1. The yeast reporter strain Y190 (CLONTECH) was transformed with 1 μg of pAS2-1, pAS2-1:hMusTRD1α1, or pAS2-1:ΔhMusTRD1α1 using an alkali cation method (BIO 101, Inc., La Jolla, Calif.) and mated with Y187 cells carrying either pACTII, pGAD10:hMusTRD1α1 or, pACTII:ΔhMusTRD1α1. Transformants were selected on complete synthetic media plates lacking tryptophan and leucine (BIO 101). Diploid cells were grown to saturation and used to inoculate test cultures (OD₆₀₀=0.1) that were grown for a further 24 h at 30° C. Cells were harvested in 100 μl Breaking Buffer (100 mM Tris-HCl pH 8, 20% glycerol, 5 mM PMSF, 2 mM DTT) and lysed by vortexing with glass beads. Protein concentration was determined by the Bradford method (Bio-Rad Laboratories, Sydney, NSW). Protein extracts (20 μg) were assayed for β-galactosidase activity with a chemiluminescence detection kit (CLONTECH) and a Turner Designs 20/20 luminometer (Sunnyvale, Calif.).

B1: ΔhMusTRD1α1 (truncated human MusTRD1α1, amino acids 1-458) (other)
chain: MALLGKRCDVPTNGCGPDRWNSAFTRKDEIITSLVSALDSMCSALSKLNAEVACVAVHDESAFVVGTEKGRMFLNARKELQSDFLRFCRGPPWKDPEAEHPKKVQRGEGGGRSLPRSSLEHGSDVYLLRKMVEEVFDVLYSEALGRASVVPLPYERLLREPGLLAVQGLPEGLAFRRPAEYDPKALMAILEHSHRIRFKLKRPLEDGGRDSKALVELNGVSLIPKGSRDCGLHGQAPKVPPQDLPPTATSSSMASFLYSTALPNHAIRELKQEAPSCPLAPSDLGLSRPMPEPKATGAQDFSDCCGQKPTGPGGPLIQNVHASKRILFSIVHDKSEKWDAFIKETEDINTLRECVQILFNSRYAEALGLDHMVPVPYRKIACDPEAVEIVGIPDKIPFKRPCTYGVPKLKRILEERHSIHFIIKRMFDERIFTGNKFTKDTTKLEPASPPEDTSAEVS
notes: the fusion parts are not written into the chain; In the COS-7 Western blot it was expressed from pCI-neo; also called ΔMusTRD; hMusTRD1α1458aa
Turning to B1, the binding result was “binds”.
